Data reported in patent publication US8114412B2, “T. cruzi-derived neurotrophic agents and methods of use therefor” (priority 1999, dated 2012).
Entries after “also recorded” stand apart in the source; their conditions may differ.

Legend:
PC12 cells [1] = experiment: Neurite outgrowth assay in PC12 cells; type: cell-based, rat; conditions: neurite outgrowth assay, concentration not given
Description: (§1) PC12 cells were obtained from ATCC (Manassas, Va. (Accession No. CRL-1721)) and cultured on collagen-coated dishes in RPMI 1640 supplemented with 10% horse serum and 5% fetal bovine serum (Greene, L. A. and Tishler, A. S., Proc. Natl. Acad. Sci. USA, 73: 2424-2428 (1976)). For differentiation and survival experiments, cells were washed three times in serum-free RPMI/0.2% BSA, plated in the same medium in collagen-coated plastic dishes at 2×10^5/ml, without and with growth factors, TS, recombinant proteins, synthetic peptides, for the time and concentrations indicated in the Figures.
(§2) 96-well microtiter plates were coated overnight at 4° C. with the TS or peptides or fragments thereof, or with control proteins laminin (Ln) or bovine serum albumin (BSA) at 500 μg/ml. After removing the compounds, the plates were further incubated with 1% BSA for 1 hour at room temperature and immediately used as substratum for PC12 or N18 (Prasad, K. N., Biol Rev Camb Philos Soc, 66:431-451 (1991)) cells in serum-free RPMI/0.2% BSA. Neurite outgrowth was measured using a phase-contrast microscope 17 hours later.

PC12 cells [2] = experiment: Trophic factor withdrawal-induced apoptosis of PC12 cells (DAPI/TUNEL); type: cell-based, rat; conditions: serum-free RPMI-1640/0.2% BSA, 17 hours, DAPI or TUNEL
Description: as §1
Cell staining with 4,6-diamino-2-phenylindole (DAPI). Cells were fixed with 4% formaldehyde in PBS for 5 minutes, washed with PBS, stained with 10 μg/ml DAPI (Sigma) for 2 minutes, washed with PBS, and visualized under UV light using a fluorescent microscope. About 300-400 cells were examined under the microscope to determine the percentage of apoptotic cells.
Cell DNA nick end labeling (TUNEL) (Gavrieli, Y., et al., J. Cell. Biol. 119: 493-501 (1992)) assay was performed using a kit purchased from Boehringer Mannheim as described by the manufacturer.
Protection against apoptosis of PC12 cells in serum-free medium containing a test agent (agent N)(e.g., protection induced by TS, TS fragments, NGF or other growth factors), was calculated by the formula: 100%-[(apoptosis(%) of cells kept in RPMI containing test agent N÷apoptosis (%) of cells kept in RPMI)×100%]. Testing the effect of wortmannin (Sigma) and LY294002 (Sigma) in inhibiting the neuroprotection of TS was performed following the protocol described by others (Yao and Cooper, Science, 267:2003-2006 (1995); D'Mello et al., J. Neurosci 17:1548-1560 (1997)). In brief, PC12 cells were switched from growth medium to RPMI without and with TS or various other growth factors. After 24 hr, wortmannin and LY294002 were added to the cultures. After another 24 hrs, cells were examined for apoptosis by the DAPI assay, as above.

N18 cells = experiment: Neurite outgrowth assay in N18 cells; type: cell-based; conditions: immobilized proteins coated at 500 μg/ml, 17 hours (FIG. 3A)
Procedure: FIG. 3A is a graph showing that neurite outgrowth in N18 cells is induced by immobilized laminin (Ln), immobilized TS and immobilized fragments of TS. Proteins were immobilized by incubating plates which contained wells filled with solutions of the proteins (protein concentration was 500 μg/ml) at 4° C. overnight. The protein solutions were removed and the plates were further incubated with 1% BSA at room temperature for one hour. N18 cells were cultured in the coated wells in serum-free RPMI-1640/0.2% BSA for 17 hours, and neurite outgrowth was measured by phase-contrast microscopy. […] Ln, laminin; TS, purified T. cruzi trans-sialidase; 7F, recombinant TS from clone 7F; 19Y, recombinant TS from clone 19Y; TS-F, recombinant fragment consisting of amino acid residues 33-666 of TS (SEQ ID NO:2); TS-CC-47, recombinant fragment consisting of amino acid residues 79-478 of TS (SEQ ID NO:2); TS-Cat-47, recombinant fragment consisting of amino acid residues 79-415 of TS (SEQ ID NO:2); BSA, bovine serum albumin.
as §2

Trans-sialidase assay = type: biochemical
Procedure: The trans-sialidase assay was performed as described (Scudder et al., J. Biol. Chem. 268:9886-9891 (1993)) with slight modifications. Various amounts of intact enzyme or enzyme fragments were added to 50 mM PBS, Ph 7.2, containing 15% fetal calf serum and […] of [^14C]N-acetyllactosamine (4×10^5 dpm), 50 μg BSA and 0.02% NaN3 in a volume of 60 μl. After incubation for a predetermined amount of time at room temperature, the reaction mixture was diluted to 1.0 ml with distilled water and applied to a column containing 1.0 ml Q-Sepharose equilibrated with water. Sialylated product was eluted with 1 M NaCi and quantified by scintillation counting.
TS enzymatic activity was measured by the sialylation of the acceptor ^14C-labeled N-acetyllactosamine on anion exchange resins (Scudder, P. et. al., J. Biol. Chem. 268:9886-9891 (1993)). Recombinant TSA-1, was expressed on insect sf9 cells and purified from serum-free medium by ion exchange chromatography (monoQ) and preparative SDS-PAGE (Wrightsman, R. A. et al., J. Immunol., 153:3148-3154 (1994).

[3] = tested on: peripheral blood mononuclear cells (PBMC); experiment: IL-6 secretion by PBMC (ELISA); type: cell-based, human; design: IL-6 secretion by PBMC: dose or concentration left out as unconfirmed; conditions: 24 hrs culture
Procedure: (§3) Primary cultures of human intestinal microvascular endothelial cells (HIMEC) isolated from normal jejunal mucosa/submucosal tissue were prepared as described (Strong et al., Gastroenterology 114: 1244-1256 (1998)). The HIMEC were cultured in fibronectin-coated plasticware in MCDB medium (Sigma) supplemented with 20% FBS, 90 μg/ml heparin and 50 μg/ml endothelial cell growth factor (Sigma). T-24 cells (ATCC Accession No. HTB-4) were cultured in M199 medium supplemented with 10% FBS. PBMC were purified by Ficoll-Paque gradient as described (Current Protocols in Immunology, pp 7.1.1-7.1.2). Vero cells (ATCC Accession No. CCL-81) were grown in RPMI medium with 5% Nu serum and infected with the Silvio X-10/4 of T. cruzi as described previously (Chuenkova et al., J. Exp. Med. 181: 1693-1703, (1995)).
(§4) Endothelial cells and T-24 cells were plated on 24-well plates at a density of 1×10^3 cells/well, while peripheral blood mononuclear cells (PBMC) were plated in the similar wells at 1×10^6/well. Triplicat cultures of cells were incubated test agents for a predetermined amount of time. […] Cytokines and chemokines released in the culture supernatants were measured by ELISA assay following the instructions of the manufacturer (Endogen). The cytokines tested were IL-1β, IL-4, IL-8, IL-10, IL-12, IFN-γ, TNF-α, and the chemokines RANTES and MCP-1. Negative controls were cells incubated in medium containing polymixin B at 10 μg/ml, and positive controls were cells incubated with bacterial LPS at the low ng/ml range (for PBMC or HIMEC) or in the μg/ml range for carcinoma T-24 cells. In some experiments, IL-1β, or TNFα were used as positive control for cytokine release.
TR peptides (Table 2) were synthesized at the Tufts Synthesis Facility (Boston, Mass.). Each peptide was purified by HPLC, and the number of amino acids and molecular weight of each peptide verified by mass spectrometry. Peptides were dissolved in growth medium (10% FCS in RPMI) and added at various concentrations to 1×10^6 PBMC/well in 24-well plates. After 24 hrs, IL-6 was assayed by ELISA in the conditioned supernatants.

[4] = tested on: human bladder carcinoma T-24 cell line; experiment: IL-6 secretion by T-24 carcinoma cells (ELISA); type: cell-based; conditions: 24 hours culture
Procedure: as §3, §4

Row | Molecule | neurite outgrowth in PC12 cells (PC12 cells [1]) | protection of PC12 cells from apoptosis induced by trophic factor withdrawal (PC12 cells [2]) | neurite outgrowth in N18 cells (N18 cells) | trans-sialidase enzymatic activity (Trans-sialidase assay) | IL-6 secretion by PBMC [3] | IL-6 secretion by T-24 cells [4]
1 | cruzipain: T. cruzi protease (protein, UniProt P25779 123-467, looked up) Cruzipain: APAAVDWRARGAVTAVKDQGQCGSCWAFSAIGNVECQWFLAGHPLTNLSEQMLVSCDKTDSGCSGGLMNNAFEWIVQENNGAVYTEDSYPYASGEGISPPCTTSGHTVGATITGHVELPQDEAQIAAWLAVNGPVAVAVDASSWMTYTGGVMTSCVSEQLDHGVLLVGYNDSAAVPYWIIKNSWTTQWGEEGYIRIAKGSNQCLVKEEASSAVVGGPGPTPEPTTTTTTSAPGPSPSYFVQMSCTDAACIVGCENVTLPTGQCLLTTSGVSAIVTCGAETLTEEVFLTSTHCSGPSVRSSVPLNKCNRLLRGSVEFFCGSSSSGRLADVDRQRRHQPYHSRHRRL | did not induce neurite extension | – | – | – | – | –
2 | TS-F-47: recombinant TS fragment, amino acid residues 79-666 of SEQ ID NO:34 (protein, listed as Trypanosoma cruzi) GDARDWDILLAVGEVTKSTAGGKITASIKWGSPVSLKKFFPAEMEGMHTNQFLGGAGVAIVASNGNLVYPVQVTNKRKQVFSKIFYSEDDGKTWKFGKGRSDFGCSEPVALEWEGKLIINTRVDWKRRLVYESSDMEKPWVEAVGTVSRVWGPSPKSNQPGSQTSFTAVTIEGMRVMLFTHPLNFKGRCVRDRLNLWLTDNQRIYNVGQVSIGDENSAYSSVLYKDDKLYCLHEINTDEVYSLVFARLVGELRIIKSVLRSWKNWTATCPAFAPLLIQPLRRQRVVVVPLSPRLVLLAFCRQRLPKRMGGSYRCVNASTANAERVRNGLKFAGVGGGALWPVSQQGQNQRYRFANHAFTLVASVTIHEAPRAASPLLGASLDSSGGKKLLGLSYDEKHQWQPIYGSTPVTPTGSWETGKRYHLVLTMANKIGSVYIDGELLEGSGQTVVPDGRTPDISHFYVGGYKRSDMPTISHVTVNNVLLYNRRQLNTEEIRTLFLSQDLIGTEAHMDSSSDSSAHSTPSTPADSSAHSTPSTPVDSSAHSTPSTPADSSAHGTPSTPVDSSAHGTPSTPADSSAHGTPSTPVDS | – | active | as effective as the native enzyme in stimulating neurite outgrowth; also recorded: active | enzymatically inactive | – | –
3 | TS-CC-47: recombinant fragment consisting of amino acid residues 79-478 of TS (SEQ ID NO:2) (protein, listed as Trypanosoma cruzi) MVAIADARYDTSNDNSLIDTVAKYSVDDGETWETQIAIKNSRVSSVSRVVDPTVIVKGNKLYVLVGSYYSSRSYWSSHGDARDWDILLAVGEVTKSTAGGKITASIKWGSPVSLKKFFPAEMEGMHTNQFLGGAGVAIVASNGNLVYPVQVTNKKKQVFSKIFYSEDDGKTWKFGKGRSDFGCSEPVALEWEGKLIINTRVDWKRRLVYESSDMEKPWVEAVGTVSRVWGPSPKSNQPGSQSSFTAVTIEGMRVMLFTHPLNFKGRWLRDRLNLWLTDNQRIYNVGQVSIGDENSAYSSVLYKDDKLYCLHEINTDEVYSLVFARLVGELRIIKSVLRSWKNWDSHLSSICTPADPAASSSESGCGPAVTTVGLVGFLSGNASQNVWEDAYRCVNASTAN | – | active | did not substantially reduce neurite outgrowth; also recorded: active | – | – | –
4 | TS-Cat-47: recombinant fragment consisting of amino acid residues 79-415 of TS (SEQ ID NO:2) (protein, listed as Trypanosoma cruzi) MVAIADARYDTSNDNSLIDTVAKYSVDDGETWETQIAIKNSRVSSVSRVVDPTVIVKGNKLYVLVGSYYSSRSYWSSHGDARDWDILLAVGEVTKSTAGGKITASIKWGSPVSLKKFFPAEMEGMHTNQFLGGAGVAIVASNGNLVYPVQVTNKKKQVFSKIFYSEDDGKTWKFGKGRSDFGCSEPVALEWEGKLIINTRVDWKRRLVYESSDMEKPWVEAVGTVSRVWGPSPKSNQPGSQSSFTAVTIEGMRVMLFTHPLNFKGRWLRDRLNLWLTDNQRIYNVGQVSIGDENSAYSSVLYKDDKLYCLHEINTDEVYSLVFARLVGELRIIKSVL | did not promote neurite outgrowth | promoted the survival of the PC12 cells | inactive in stimulating neurite outgrowth | – | – | –
5 | TS-H32 (protein, listed as Trypanosoma cruzi) KKKQVFSKIFYSEDDGKTWKFGEGRSAFGCSEAVALEWEGKLIINTRVDYRRRLVYESSDMGNTWLEAVGTLSRVWGPSPKSNQPGSQSSFTAVTIEGMRVMLFTHPLNFKGRWLRDRLNLWLTDNQRIYNVGQVSIGDENSAHSSVLYKDDKLYCLHEINSNEVYSLVFARLVGELRIIKSVLQSWKNWDSHLSSICTP | – | – | – | enzymatically-inactive | stimulating IL-6 secretion | stimulating IL-6 secretion
